Experimental data taken from publication PMC4608048.

Molecular target: UbcH10^LR (as used in surface plasmon resonance) (human)
Assay: SPR

A K^kin d (fast) of 24 nM, a K^kin d (slow) of 23 nM and a koff (fast) of 0.04 s⁻¹ were found for “APC/C^Cdh1.Hsl1 (from UniProt Q9H1A4;Q9UJX6;P30260;Q9UJX5;Q9UJX4;Q13042;Q9UJX3;Q9UJX2;Q9UM13;Q9NYG5;Q8NHZ8;Q9BS18;P60006;Q96DE5;Q9UM11-2;P34244) (complex)” in this work. The koff (slow) was 0.0046 s⁻¹, the kon (fast) was 1.7e+06 M⁻¹ s⁻¹ and the kon (slow) was 170000 M⁻¹ s⁻¹.
